Experimental data as given in patent US20260151494A1 (ARO BIOTHERAPEUTICS, published 2026).

Assays:
[1] = molecular target: human CD71 on cells (SKBR3; SW620-rLuc-KRAS) (human, UniProt P02786 1-760); experiment: cell-based or functional assay
[2] = molecular target: T1, human CD71 extracellular domain (human, UniProt P02786 89-760); experiment: primary ELISA screen, Screen 4, luminescence; also: test concentration or dose not given here
T1 construct: also called hCD71; CD71-ECD

[3] = molecular target: T2, apical domain of human CD71 (human, UniProt P02786 189-383, limits assumed); experiment: primary ELISA screen, Screen 4, luminescence; also: test concentration or dose not given here
T2 construct: domain: apical domain; Screen 4 panned against human apical domains; also called human apical domain

[4] = molecular target: T2, apical domain of human CD71; experiment: primary ELISA screen, Screen 4; signal on apical domain over signal on HSA
[5] = molecular target: T1, human CD71 extracellular domain; experiment: primary ELISA screen, Screen 4; signal on hCD71 over signal on HSA
[6] = molecular target: T3, apical domain of CD71 (Screen 3: 'cynomolgus apical domain of human CD71') (cynomolgus (as 'cynomolgus apical …)); experiment: primary ELISA screen, apical domain of CD71; also: test concentration or dose not given here
T3 construct: domain: apical domain; Species is told ambiguously

[7] = molecular target: T3, apical domain of CD71 (Screen 3: …); experiment: primary ELISA screen, RLU on apical domain over RLU on HSA
[8] = molecular target: T4, human CD71 extracellular domain (human, UniProt P02786 89-760); experiment: primary ELISA screen, human CD71-ECD; also: test concentration or dose not given here
T4 construct: also called hCD71; human CD71-ECD

[9] = molecular target: T4, human CD71 extracellular domain; experiment: primary ELISA screen, RLU on human CD71-ECD over RLU on HSA

Sequence of human CD71 on cells (SKBR3; SW620-rLuc-KRAS) (P02786 whole entry, the tested form may be a part): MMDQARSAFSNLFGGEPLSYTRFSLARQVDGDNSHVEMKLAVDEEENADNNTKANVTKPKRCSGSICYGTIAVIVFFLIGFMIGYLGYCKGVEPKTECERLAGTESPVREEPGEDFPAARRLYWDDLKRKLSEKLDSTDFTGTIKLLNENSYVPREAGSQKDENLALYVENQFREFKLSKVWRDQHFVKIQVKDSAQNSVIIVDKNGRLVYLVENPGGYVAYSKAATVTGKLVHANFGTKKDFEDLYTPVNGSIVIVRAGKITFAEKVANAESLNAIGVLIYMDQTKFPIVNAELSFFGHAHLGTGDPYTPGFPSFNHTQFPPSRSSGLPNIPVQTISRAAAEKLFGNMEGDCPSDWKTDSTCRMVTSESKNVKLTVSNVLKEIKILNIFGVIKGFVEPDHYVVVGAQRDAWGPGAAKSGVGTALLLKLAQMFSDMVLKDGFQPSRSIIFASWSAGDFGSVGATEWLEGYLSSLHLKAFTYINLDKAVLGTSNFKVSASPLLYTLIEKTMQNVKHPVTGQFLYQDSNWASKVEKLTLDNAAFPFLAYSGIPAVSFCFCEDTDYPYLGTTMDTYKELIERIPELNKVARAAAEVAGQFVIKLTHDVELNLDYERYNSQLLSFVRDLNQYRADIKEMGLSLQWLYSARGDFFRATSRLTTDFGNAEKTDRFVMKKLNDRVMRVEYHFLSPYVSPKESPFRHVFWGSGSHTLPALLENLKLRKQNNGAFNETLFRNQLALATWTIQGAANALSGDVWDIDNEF
T2 sequence (P02786 189-383 limits assumed): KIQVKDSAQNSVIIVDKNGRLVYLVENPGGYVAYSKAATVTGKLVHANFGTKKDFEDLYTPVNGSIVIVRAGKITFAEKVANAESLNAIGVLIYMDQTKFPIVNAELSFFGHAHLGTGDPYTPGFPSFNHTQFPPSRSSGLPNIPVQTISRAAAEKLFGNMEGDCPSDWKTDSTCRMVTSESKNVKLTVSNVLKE

LSA EC50 (luciferase reporter assay, SW620-rLuc-KRAS cells, 72 h) [1] | hCD71, RLU [2] | Apical domain, RLU [3] | Apical domain:HSA [4] | hCD71:HSA [5] | other results | Binder
0.15 nM | – | – | – | – | – | CD71-binding FN3 domain of SEQ ID NO: 373 conjugated to KRAS2 siRNA (designed binder, conjugated to KRAS2 tool siRNA; site and linker not stated) MLPAPKNLVVSRVTEDSARLSWTAPDAAFDSFFIGYLEPQPPGEAISLFVPGSERSYDLTGLKPGTEYNVTIQGVKGGFPSDPLVASFTT
0.53 nM | – | – | – | – | – | CD71-binding FN3 domain of SEQ ID NO: 447 conjugated to KRAS2 siRNA (designed binder, conjugated to KRAS2 tool siRNA; site and linker not stated) MLPAPKNLVVSRVTEDSARLSWTAPDAAFDSFFIGYLEPQPPGEAIYLYVPGSERSYDLTGLKPGTEYNVTIQGVKGGFPSYPLTAQFTT
0.22 nM | – | – | – | – | – | CD71-binding FN3 domain of SEQ ID NO: 496 conjugated to KRAS2 siRNA (designed binder, conjugated to KRAS2 tool siRNA; site and linker not stated) MLPAPKNLVVSRVTEDSARLSWTAPDAAFDSFFIGYLEPQPPGEAIILWVPGSERSYDLTGLKPGTEYNVTIQGVKGGFPSVPLIAQFTT
0.52 nM | – | – | – | – | – | CD71-binding FN3 domain of SEQ ID NO: 529 conjugated to KRAS2 siRNA (designed binder, conjugated to KRAS2 tool siRNA; site and linker not stated) MLPAPKNLVVSRVTEDSARLSWTAPDAAFDSFFIGYLEPQPPGEAIDLYVPGSERSYDLTGLKPGTEYNVTIQGVKGGFPSLPLQAHFTT
0.6 nM | – | – | – | – | – | CD71-binding FN3 domain of SEQ ID NO: 508 conjugated to KRAS2 siRNA (designed binder, conjugated to KRAS2 tool siRNA; site and linker not stated) MLPAPKNLVVSRVTEDSARLSWTAPDAAFDSFFIGYLEPQPPGEAITLSVPGSERSYDLTGLKPGTEYNVTIQGVKGGFPSEPLIAIFTT
0.21 nM | – | – | – | – | – | CD71-binding FN3 domain of SEQ ID NO: 478 conjugated to KRAS2 siRNA (designed binder, conjugated to KRAS2 tool siRNA; site and linker not stated) MLPAPKNLVVSRVTEDSARLSWTAPDAAFDSFFIGYLEPQPPGEAIHLYVPGSERSYDLTGLKPGTEYNVTIQGVKGGFPSVPLIAKFTT
0.15 nM | – | – | – | – | – | CD71-binding FN3 domain of SEQ ID NO: 472 conjugated to KRAS2 siRNA (designed binder, conjugated to KRAS2 tool siRNA; site and linker not stated) MLPAPKNLVVSRVTEDSARLSWTAPDAAFDSFFIGYLEPQPPGEAIELYVPGSERSYDLTGLKPGTEYNVTIQGVKGGFPSLPLVATFTT
0.6 nM | – | – | – | – | – | CD71-binding FN3 domain of SEQ ID NO: 516 conjugated to KRAS2 siRNA (designed binder, conjugated to KRAS2 tool siRNA; site and linker not stated) MLPAPKNLVVSRVTEDSARLSWTAPDAAFDSFFIGYLEPQPPGEAISLWVPGSERSYDLTGLKPGTEYNVTIQGVKGGFPSSPLVAYFTT
– | 4.95e+06 RLU | 5.7e+06 RLU | 137 ratio | 119 ratio | – | CD71-binding FN3 domain of SEQ ID NO: 552 (designed binder) MLPAPKNLVVSRVTEDSARLSWTAPDAAFDSFFIGYLEPQPPGEAIHLFVPGSERSYDLTGLKPGTEYNVTIQGVKGGFPSMPLSAIFTT
0.31 nM | – | – | – | – | – | CD71-binding FN3 domain of SEQ ID NO: 476 conjugated to KRAS2 siRNA (designed binder, conjugated to KRAS2 tool siRNA; site and linker not stated) MLPAPKNLVVSRVTEDSARLSWTAPDAAFDSFFIGYLEPQPPGEAIHLQVPGSERSYDLTGLKPGTEYNVTIQGVKGGFPSIPLIAVFTT
0.24 nM | – | – | – | – | – | CD71-binding FN3 domain of SEQ ID NO: 400 conjugated to KRAS2 siRNA (designed binder, conjugated to KRAS2 tool siRNA; site and linker not stated) MLPAPKNLVVSRVTEDSARLSWTAPDAAFDSFFIGYLEPQPPGEAIHLFVPGSERSYDLTGLKPGTEYNVTIQGVKGGFPSGPLHATFTT
– | 2.86e+06 RLU | 3.49e+06 RLU | 242 ratio | 198 ratio | – | CD71-binding FN3 domain of SEQ ID NO: 549 (designed binder) MLPAPKNLVVSRVTEDSARLSWTAPDAAFDSFFIGYLEPQPPGEAISLWVPGSERSYDLTGLKPGTEYNVTIQGVKGGFPSMPLSAIFTT
– | 4.79e+06 RLU | 5.8e+06 RLU | 170 ratio | 141 ratio | – | CD71-binding FN3 domain of SEQ ID NO: 550 (designed binder) MLPAPKNLVVSRVTEDSARLSWTAPDAAFDSFFIGYLEPQPPGEAIHLFVPGSERSYDLTGLKPGTEYNVTIQGVKGGFPSIPLYARFTT
– | 4.59e+06 RLU | 5.35e+06 RLU | 322 ratio | 277 ratio | – | CD71-binding FN3 domain of SEQ ID NO: 547 (designed binder) MLPAPKNLVVSRVTEDSARLSWTAPDAAFDSFFIGYLEPQPPGEAIHLIVPGSERSYDLTGLKPGTEYNVTIQGVKGGFPSDPLVASFTT
– | 4.73e+06 RLU | 5.29e+06 RLU | 257 ratio | 230 ratio | – | CD71-binding FN3 domain of SEQ ID NO: 548 (designed binder) MLPAPKNLVVSRVTEDSARLSWTAPDAAFDSFFIGYLEPQPPGEAIYLFVPGSERSYDLTGLKPGTEYNVTIQGVKGGFPSMPLSAIFTT
– | 3.53e+06 RLU | 4.4e+06 RLU | 466 ratio | 374 ratio | – | CD71-binding FN3 domain of SEQ ID NO: 546 (designed binder) MLPAPKNLVVSRVTEDSARLSWTAPDAAFDSFEIAYIEVNIQGEAIVLTVPGSERSYDLTGLKPGTEYYVHIGGVKGGPSSSPLSAIFTT
– | 1.17e+06 RLU | 4.07e+06 RLU | 158 ratio | 45 ratio | – | CD71-binding FN3 domain of SEQ ID NO: 551 (designed binder) MLPAPKNLVVSRVTEDSARLSWTAPDAAFDSFEIAYFETCRTGEAIVLTVPGSERSYDLTGLKPGTEYWVQIGGVKGGNWSAPLSAIFTT
– | – | – | – | – | RLU [6]: 3.4e+06 RLU; Apical domain:HSA [7]: 92 ratio; RLU [8]: 1.33e+06 RLU; hCD71:HSA [9]: 36 ratio | CD71-binding FN3 domain of SEQ ID NO: 344 (designed binder, not shown: C-terminal poly-histidine tag added to each FN3 domain) MSLPAPKNLFVSRVTEDSARLSWTAPDAAFDSFEIGYWENAYKGEAIVLTVPGSERSYDLTGLKPGTEYWVQIGGVKGGNWSAPLSAIFTT
– | – | – | – | – | RLU [6]: 4.59e+06 RLU; Apical domain:HSA [7]: 195 ratio; RLU [8]: 2.55e+06 RLU; hCD71:HSA [9]: 108 ratio | CD71-binding FN3 domain of SEQ ID NO: 345 (designed binder, not shown: C-terminal poly-histidine tag added to each FN3 domain) MSLPAPKNLVVSRVTEDSAHLSWTAPDAAFDSFEIGYFENDYFGEAIVLTVPGSERSYDLTGLKPGTEYVVFIGGVKGGKWSAPLSAIFTT
